Laboratory results: US8524231

Assays:
[1] = biological target: biotinylated human IL-1Beta (human) (UniProt P01584); test: cell-based or functional assay
[2] = biological target: biotinylated human IL-1Beta (human) (UniProt P01584); test: competition ELISA: periplasmic Fab extract plus biotinylated IL-1Beta on coated mouse mAb (competitor); reduced signal means competition
[3] = biological target: biotinylated human IL-1Beta (human) (UniProt P01584); test: ELISA based competition assay against the antagonistic reference mouse mAb (competitor)

Chain of biotinylated human IL-1Beta (human) (P01584 117-269 limits assumed): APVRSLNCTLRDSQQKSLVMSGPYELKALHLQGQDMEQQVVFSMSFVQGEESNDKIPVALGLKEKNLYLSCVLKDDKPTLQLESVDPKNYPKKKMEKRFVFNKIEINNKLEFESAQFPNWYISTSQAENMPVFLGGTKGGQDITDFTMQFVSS

Binder | IC50 in the bioassay [1] | signal (OD) in the competition assay [2] | concentration at which competition is seen [3]
antagonistic Fab 1A1 (Fab, part only; not given: lambda light chain, constant domains, V domains shown, not shown: a dimerising Fc or GST) VH: EVQLVESGGGLVQPGGSLRLSCAASGFTFDDYAMSWVRQAPGKGLEWVSTISWNGGATYYAESMKGRFTISRDNAKNTLYLQMNSLKSEDTAVYYCAKPYYSDYVGVEYDYWGQGTQVTVSS |  | 0.205 OD | 
Fab 1G1 (clone related to 1B3) (Fab, part only; not given: light chain, V domains shown, part only) VH: EVQLVQSGAELRNPGASVKVSCKASGYTFTSYYTDWVRQAPGQGLEWMGRIDPEDGDTKYAQKFQGRVTFTADTSTSTAYVELTSLRSEDTAVYYCLRSGAYELDYWGQGTQVTVSS |  | 0.498 OD | 

Next, values leading:

IC50 in the bioassay [1] | signal (OD) in the competition assay [2] | concentration at which competition is seen [3] | Binder
3 µg/mL | 0.386 OD | > 50 µg/mL | antagonistic Fab 1C3 (Fab, part only; not given: lambda light chain, constant domains, V domains shown, not shown: a dimerising Fc or GST) VH: EVQLVESGGGLVQPGGSLRLSCAASGFTFSSYWMYWVRQAPGKGLEWVSAINTGGGRTYYADSVKGRFTISRDNAKNTLYLQMNSLKSEDTAVYYCAKGTSADGSSWYVPADPYDYWGQGTQVTVSS
 | 0.444 OD |  | antagonistic Fab 1B3 (Fab, part only; not given: lambda light chain, constant domains, V domains shown, not shown: a dimerising Fc or GST) VH: EVQLVQSGAELRNPGASVKVSCKASGYTFTSYYIDWVRQAPGQGLEWMGRIDPEDGGTKYAQKFQGRVTFTADTSTSTAYVELSSLRSEDTAVYYCARSGRYELDYWGQGTQVTVSS
